Reference: FireProtDB (doi:10.1021/bi00185a025)

Conditions: Escherichia coli (strain K12); pH 7; 25 °C; Urea; CD; Sodium phosphate 5 mM; reversible: yes; whole UniProt chain shown

B1: Chemotaxis protein CheY wild type, P0AE67 (protein)
chain: MADKELKFLVVDDFSTMRRIVRNLLKELGFNNVEEAEDGVDALNKLQAGGYGFVISDWNMPNMDGLELLKTIRADGAMSALPVLMVTAEAKKENIIAAAQAGASGYVVKPFTAATLEEKLNKIFEKLGM
  denaturant m value: 1.6 kcal/mol/M
  denaturant midpoint (higher = more stable): 3.25 M
  unfolding free energy: 5.2 kcal/mol
